Relative standard deviation among lots of a parameter indicative of TNFα production by CD4+ CAR+ T cells after stimulation with CD19 and relative standard deviation among lots of a parameter indicative of TNFα production by CD8+ CAR+ T cells after stimulation with CD19 data for one substance are collected here from patent US20210128616A1.

The target in this assay is CD19 (UniProt P15391). As to the kind of experiment: cell-based or functional assay.
UniProt P15391, sequence (P15391 20-291 limits assumed): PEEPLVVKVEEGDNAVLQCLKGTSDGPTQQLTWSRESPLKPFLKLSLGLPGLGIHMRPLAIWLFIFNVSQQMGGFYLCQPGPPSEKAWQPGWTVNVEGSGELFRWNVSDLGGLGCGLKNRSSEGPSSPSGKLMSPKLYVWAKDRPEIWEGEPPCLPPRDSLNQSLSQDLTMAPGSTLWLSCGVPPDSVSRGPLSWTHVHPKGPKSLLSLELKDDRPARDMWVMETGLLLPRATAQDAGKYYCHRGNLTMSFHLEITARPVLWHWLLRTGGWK

In the case of “anti-CD19 chimeric antigen receptor (CAR) with an anti-CD19 scFv derived from murine antibody FMC63 (VL-linker-VH orientation), an immunoglobulin-derived spacer, a CD28-derived transmembrane domain, a 4-1BB costimulatory region and a CD3-zeta intracellular signaling domain”, the relative standard deviation among lots of a parameter indicative of TNFα production by CD4+ CAR+ T cells after stimulation with CD19 is 37% and the relative standard deviation among lots of a parameter indicative of TNFα production by CD8+ CAR+ T cells after stimulation with CD19 worked out at 51%.
